Test results published in patent US20040022780A1, “Serine protease and topical retinoid compositions useful for treatment of acne vulgarise and production of anti-aging effects” (priority 1997, published 2004).

Key:
Type in all cases: in vivo
[1] = system: utriculi of Rhino mouse skin; experiment: Rhino mouse utriculus size reduction (whole mount epidermis image analysis); conditions: for Utriculus Size Reduction (%) vs. Liposome Control: topical once daily for five days, sacrificed day 8
Text: The Rhino mouse has been used as an experimental acne model to screen topically active comedolytic and antikeratinizing agents as described in Sundberg, J. P., “The Hairless and Rhino Mutations, Chromosome 14,” Handbook of Mouse Mutations With Skin and Hair Abnormalities 291-312 (1994), which is incorporated herein by reference in its entirety. A recessive mutation on chromosome 14 results in a mouse with wrinkled skin devoid of body hair by age 25 days. At that time, the end of the first hair cycle, the follicular papillae fail to follow the regressing hair follicles and become isolated in the dermis. […] The upper remnants of the hair follicle are filled with sloughed, cornified cells and form utriculi with a small sebaceous gland at their base, resembling an open comedone. The rhino skin becomes progressively loose, forming folds and ridges, due to the expansion of the surface, secondary to abortive hair follicles filling with cornified debris. The utriculi progressively enlarge, forming pilary cists (pseudocomedones), which are dilated follicular infundibula filled with cornified debris.
RHJ/LE Hairless (“Rhino”) male mice, 5-7 weeks of age, were obtained from Jackson Laboratories (Bar Harbor, Me.), and treated as described in Mezick et al., “Topical and Systemic Effects of Retinoids on Horn-Filled Utriculus Size in the Rhino Mouse: A Model to Quantify “Antikeratinizing” Effects of Retinoids,” 83 J. Invest. Dermatol. 110-113 (1984) (“Mezick”), which is incorporated herein by reference in its entirety.
Rhino mice of Example 1 were topically treated with the trypsin compositions (0.001% (w/v)-1% (w/v)) of Example 2 once daily for five days. Animals were sacrificed at day 8 and image analysis was used to quantify the reduction in utriculi size. For image analysis, whole mount epidermis was processed and microscopic measurements were taken according to the methods described in Mezick as well as Bernerd et al., “The Rhino Mouse Model: The Effects of Topically Applied All-Trans Retinoic Acid and CD271 on the Fine Structure of the Epidermis and Urticuli Wall of Pseudocomedones,” 283(2) Arch. Dermatol. Res. 100-107 (1991) and Bouclier et al., “Quantification of Epidermal Histological Changes Induced by Topical Retinoids and CD271 in the Rhino Mouse Model Using a Standardizing Image Analysis Technique,” 4(2) Skin Pharmacol. 65-73 (1991) which are each incorporated herein by reference in their entirety. Empire Imagins Database version 1.1 was used on a Gateway 2000 P5-100 computer for capturing images. Image Pro Plus version 1.3 was used for measurements and Microsoft Excel version 5.0 for data processing. The mean utriculus diameter (μ) and the mean sebaceous gland size (μ^2) were calculated for each treatment group (3 Rhino mice), using 5 random fields, two measurements per field, per animal. Percent reduction in utriculi diameter was calculated in accordance with the methods described in Finley, D. J., “Parallel Line Assays, Statistical Method in Biological Assay,” Charles Griffen & Company Ltd. 69-104 (1978) which is incorporated herein by reference in its entirety.

[2] = system: Rhino mouse skin; experiment: Cutometer analysis of skin elasticity, Rhino mouse
Description: To quantitate this effect, a cutometer analysis was performed. We used a cutometer available from Acaderm (Menlo Park, Calif.), and employed the methods described in Couturaud et al., “Skin Biomechanical Properties: In Vivo Evaluation of Influence of Age and Body Site by a Non-Invasive Method,” 1 Skin Res. and Technol. 68-73 (1995) and Elsner et al., “Mechanical Properties of Human Forearm and Vulvar Skin,” 122 Br. J. Dermatol. 607-614 (1990) which are both incorporated herein by reference in their entirety. Suction was applied through a 2 mm aperture and the corresponding skin displacement and recovery after release of the negative pressure were measured. In human studies, an improvement in the ratios of deformation parameters Ua/Uf (skin fatigue, or total recovery from the load), Ur/Uf (biological elasticity, or elastic recovery after loading), and Ur/Ue (firmness, or improvement in the deformation resistance of the skin) indicates better tonicity and elasticity of the skin. The deformation parameters Ue, Uf, Ua, and Ur are dependent, in part, on skin thickness. Consequently, ratios were used for evaluation as described in Barel et al., “Suction Method for Measurement of Skin Mechanical Properties: The Cutometer,” Handbook of Non-Invasive Methods and the Skin 335-340 (1995) which is incorporated herein by reference in its entirety.

[3] = system: Rhino mouse skin; experiment: Histology after suboptimal trypsin, all-trans retinoic acid or both; conditions: suboptimal dose alone: 0.005% (w/v) trypsin or 0.0005% (w/v) all-trans retinoic acid
Description: A first set of Rhino mice of Example 1 were treated with suboptimal doses of the trypsin composition of Example 2. […] A second set of Rhino mice of Example 1 were treated with suboptimal concentrations of the all-trans retinoic acid composition of Example 2. A third set of Rhino mice of Example 1 were treated with both suboptimal doses of the trypsin composition of Example 2 and the all-trans retinoic acid composition of Example 2. In this third set of Rhino mice, the trypsin and all-trans retinoic acid treatments were each administered daily, but at different times (i.e. trypsin in the morning and all-trans retinoic acid in the afternoon). Mice were sacrificed and their skins were examined histologically with the procedure set forth in Example 3.

B1: trypsin (protein, UniProt P00760 24-246, looked up)
Serine protease 1: IVGGYTCGANTVPYQVSLNSGYHFCGGSLINSQWVVSAAHCYKSGIQVRLGEDNINVVEGNEQFISASKSIVHPSYNSNTLNNDIMLIKLKSAASLNSRVASISLPTSCASAGTQCLISGWGNTKSSGTSYPDVLKCLKAPILSDSSCKSAYPGQITSNMFCAGYLEGGKDSCQGDSGGPVVCSGKLQGIVSWGSGCAQKNKPGVYTKVCNYVSWIKQTIASN
notes: lyophilyzed trypsin from Sigma-Aldrich, a serine protease, in Hepes buffer mixed with GDL liposomes
Utriculus Size Reduction (%) vs. Liposome Control ([1]; Trypsin 0.001% (w/v) in GDL liposomes): 26.85 ± 4.38% | Utriculus Size Reduction (%) vs. Liposome Control ([1]; Trypsin 0.005% (w/v) in GDL liposomes): 19.58 ± 3.06% | Utriculus Size Reduction (%) vs. Liposome Control ([1]; Trypsin 0.01% (w/v) in GDL liposomes): 33.08 ± 2.15% | Utriculus Size Reduction (%) vs. Liposome Control ([1]; Trypsin 0.05% (w/v) in GDL liposomes): 43.84 ± 0.62% | Utriculus Size Reduction (%) vs. Liposome Control ([1]; Trypsin 0.1% (w/v) in GDL liposomes): 50.67 ± 0.83% | Utriculus Size Reduction (%) vs. Liposome Control ([1]; Trypsin 0.5% (w/v) in GDL liposomes): 54.31 ± 1.33% | Utriculus Size Reduction (%) vs. Liposome Control ([1]; Trypsin 1.0% (w/v) in GDL liposomes): 54.85 ± 1.02% | maximal reduction of utriculus size relative to liposomal control ([1]; further increase in trypsin concentration above ~0.1% (w/v)): ≤ 55% | trypsin concentration at which reduction in utriculus size reached a plateau ([1]; once daily for five days): ~0.1 % (w/v) | Ua/Uf (skin fatigue, total recovery from the load) ([2]; Day 7, trypsin treated): 0.593 ± 0.09 | Ur/Ue (firmness) ([2]; Day 7, trypsin treated): 0.557 ± 0.21 | Ur/Uf (biological elasticity) ([2]; Day 7, trypsin treated): 0.359 ± 0.22 | Ua/Uf (skin fatigue, total recovery from the load) ([2]; Day 12, trypsin treated): 0.663 ± 0.10 | Ur/Ue (firmness) ([2]; Day 12, trypsin treated): 0.666 ± 0.24 | Ur/Uf (biological elasticity) ([2]; Day 12, trypsin treated): 0.548 ± 0.11 | Ua/Uf (skin fatigue, total recovery from the load) ([2]; Day 16, trypsin treated): 0.675 ± 0.03 | Ur/Ue (firmness) ([2]; Day 16, trypsin treated): 0.733 ± 0.18 | Ur/Uf (biological elasticity) ([2]; Day 16, trypsin treated): 0.404 ± 0.08 | skin histology of treatment given alone vs untreated skin [3]: marked inprovement
